# Assay results: the supplement of paper PMC12764529
# ± gives the half width of the 95% confidence interval.
# Tests used:
# [1] = folding stability dG unfold from trypsin proteolysis; higher = more stable
# Method in brief: (§1)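 Unfolding free energy was derived, per protease or combined, against a sequence-predicted unfolded-state K50 and a shared folded-state K50, starting from K50 inferred by Bayesian fitting of sequencing counts. Digestion with trypsin and chymotrypsin was carried out on designed mini-proteins under 80 residues without cysteine in a PA-tagged cDNA display construct. Only designs with AlphaFold2 dimer inter-PAE above 15 were kept.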
# [2] = folding stability dG unfold from chymotrypsin proteolysis; higher = more stable
# Method in brief: as §1
# [3] = folding stability dG unfold (combined trypsin and chymotrypsin); higher = more stable
# Method in brief: as §1
Sequence,folding stability dG unfold [1],folding stability dG unfold [2],folding stability dG unfold [3]
SAGGSAGGSAGGSKKKIKIYIENENGEKKTIEIEVEGDIDEIAKELAKKYNVKIVKIEPSAGGSAGGSAGGS [r4_412_TrROS_Hall],2.77 ± 0.11 kcal/mol,3.16 ± 0.081 kcal/mol,3.05 ± 0.05 kcal/mol
SAGGSAGGSAGGSKKTIKVRIKIEVDGKTYEITVELPEEGMSLEELLKKFPNAKITEIESAGGSAGGSAGGS [r4_278_TrROS_Hall],3.15 ± 0.26 kcal/mol,3.08 ± 0.17 kcal/mol,3.22 ± 0.23 kcal/mol
SAGGSAGGSAGGSKKYKAKIVSVEYDEETKEVTIKVKLENGEEKTITMSLEELKEIELPSAGGSAGGSAGGS [r4_51_TrROS_Hall],1.97 ± 0.081 kcal/mol,3.15 ± 0.033 kcal/mol,2.77 ± 0.079 kcal/mol
SAGGSAGGSAGGSKLPEGAKITITKNEDGSYTLTVTFPNGEKVEITMSEDELKKLLEALSAGGSAGGSAGGS [r4_16_TrROS_Hall],3.84 ± 0.15 kcal/mol,3.64 ± 0.11 kcal/mol,3.79 ± 0.14 kcal/mol
SAGGSAGGSAGGSKNKKIKLGPEVKIKVKIEAKLEGGYSSENGLPEFKLDVKLEIGEVESAGGSAGGSAGGS [r10_877_TrMRF],0.727 ± 0.068 kcal/mol,1.09 ± 0.13 kcal/mol,0.94 ± 0.26 kcal/mol
SAGGSAGGSAGGSKPKKIKVETVTLEDGLTLQVVVNEDTKEKVIVLVPPSEEVTVLVEPSAGGSAGGSAGGS [r4_99_TrROS_Hall],-0.249 ± 0.31 kcal/mol,1.11 ± 0.076 kcal/mol,0.648 ± 0.15 kcal/mol
SAGGSAGGSAGGSKPKMYILKIKIKVEVKYDKETNEIVEEEIEIEIEIIEVKPGEKLELSAGGSAGGSAGGS [r4_175_TrROS_Hall],1.42 ± 0.13 kcal/mol,3.28 ± 0.092 kcal/mol,2.52 ± 0.35 kcal/mol
SAGGSAGGSAGGSKTKAELFKVGDKLILATYHPDTGKVEIFYPDNSVETLPAEEAEKLFSAGGSAGGSAGGS [r10_1140_TrMRF],1.02 ± 0.052 kcal/mol,0.957 ± 0.13 kcal/mol,1.03 ± 0.14 kcal/mol
SAGGSAGGSAGGSKTLTPEEIKKLLDEAKKKGYKTVKITVKNKNGKTYTFTIKIPKEDLSAGGSAGGSAGGS [r4_342_TrROS_Hall],2.76 ± 0.18 kcal/mol,3.13 ± 0.079 kcal/mol,2.95 ± 0.23 kcal/mol
SAGGSAGGSAGGSLELTFLLEDGTLAKVRIELNEDGELSISVELFELPAPEPVEVRFYPESAGGSAGGSAGG [r7_79_TrROS_Hall],1.42 ± 0.051 kcal/mol,2.8 ± 0.084 kcal/mol,2.42 ± 0.18 kcal/mol
SAGGSAGGSAGGSLKVEVTLDPETNELTVRTTLTLPPPPPPPPTTTTTTTTTLAPGETASAGGSAGGSAGGS [r10_86_TrROS_Hall],-0.349 ± 0.43 kcal/mol,0.776 ± 0.22 kcal/mol,0.0927 ± 0.38 kcal/mol
SAGGSAGGSAGGSMELIPTPEDTVTVVETTPVAPTPNGTPVPATVTTTTLPKEEVEAAASAGGSAGGSAGGS [r4_238_JUSTAS],2.71 ± 0.057 kcal/mol,1.53 ± 0.03 kcal/mol,2.1 ± 0.062 kcal/mol
SAGGSAGGSAGGSMIVEEDPVGPEKVTTVTLPEKDKLVTVTETFLPDGSVVTTTTPVPSSAGGSAGGSAGGS [r4_332_JUSTAS],1.8 ± 0.17 kcal/mol,2 ± 0.25 kcal/mol,1.96 ± 0.13 kcal/mol
SAGGSAGGSAGGSMIVLRMSADEIKKLLPPGAKIKKIEYDEETDEVYVIIEFDKDGKIISAGGSAGGSAGGS [r4_435_TrROS_Hall],1.53 ± 0.028 kcal/mol,1.32 ± 0.092 kcal/mol,1.49 ± 0.069 kcal/mol
SAGGSAGGSAGGSMKIELPEGAEITEIKKLPNGTYEMTIRVDGKELKIRFVDGKLVIVPSAGGSAGGSAGGS [r4_280_TrROS_Hall],3.62 ± 0.14 kcal/mol,3.51 ± 0.057 kcal/mol,3.56 ± 0.077 kcal/mol
SAGGSAGGSAGGSMKITKTLIPETGLYKVTITLPGGKPVEIEAPPSSSLEEVKKKAEKLSAGGSAGGSAGGS [r4_205_JUSTAS],-0.116 ± 0.12 kcal/mol,-0.169 ± 0.26 kcal/mol,-0.145 ± 0.26 kcal/mol
SAGGSAGGSAGGSMKIYKITVKKEDSELEFYVSDDVPAEVAANILKALYPDVEVKIEEGSAGGSAGGSAGGS [r4_155_TrMRF],1.25 ± 0.048 kcal/mol,1.1 ± 0.1 kcal/mol,1.11 ± 0.15 kcal/mol
SAGGSAGGSAGGSMKLNITVTLPDGTPITLTFPVDKIEEILKEAGLENISPELITKIEPISAGGSAGGSAGG [r7_745_JUSTAS],1.33 ± 0.034 kcal/mol,1.39 ± 0.026 kcal/mol,1.37 ± 0.051 kcal/mol
SAGGSAGGSAGGSMKYITITETTEEEVLVLYYDPETGEPVREEKVLRTVTKTRTLPPDLKSAGGSAGGSAGG [r7_573_JUSTAS],-0.236 ± 0.23 kcal/mol,0.434 ± 0.19 kcal/mol,0.189 ± 0.14 kcal/mol
SAGGSAGGSAGGSMLVEKKTFKDPKTGKTYIEIVIKDENGNLLSVKILSTEDPEKIEKLLSAGGSAGGSAGG [r7_484_JUSTAS],2.15 ± 0.12 kcal/mol,2.55 ± 0.037 kcal/mol,2.37 ± 0.15 kcal/mol
SAGGSAGGSAGGSMLVRFPDKDVLSDGSEAEAERLAEELAAAGRPVELEFISPEEAAARSAGGSAGGSAGGS [r4_131_JUSTAS],-0.225 ± 0.21 kcal/mol,-0.83 ± 0.32 kcal/mol,-0.424 ± 0.31 kcal/mol

Sequence,folding stability dG unfold [1],folding stability dG unfold [2],folding stability dG unfold [3]
SAGGSAGGSAGGSMPIVRIEVKHPDQKHTFFIPPDMPLEDIADELASQYPNVEVKIEPVSAGGSAGGSAGGS [r4_155_TrROS],0.355 ± 0.091 kcal/mol,1.33 ± 0.11 kcal/mol,0.935 ± 0.21 kcal/mol
SAGGSAGGSAGGSMPTYRITVEVDGKKYTITVREGMSPEEIAKRLKELYPNLTVKIEPVSAGGSAGGSAGGS [r4_155_TrROS_Hall],3.75 ± 0.13 kcal/mol,4.07 ± 0.15 kcal/mol,4.04 ± 0.13 kcal/mol
SAGGSAGGSAGGSMSSTVTTTLVEVGPPNGKRVLVRRTTTTFPDGSVTTTVTVLSTTIASAGGSAGGSAGGS [r4_496_JUSTAS],1.84 ± 0.027 kcal/mol,2.61 ± 0.033 kcal/mol,2.37 ± 0.063 kcal/mol
SAGGSAGGSAGGSMSTVFVSTLTLPDPSGLSTVLTTTVEIDPEGNAHPVTSTEEVSAAASAGGSAGGSAGGS [r4_80_JUSTAS],0.716 ± 0.022 kcal/mol,0.33 ± 0.089 kcal/mol,0.652 ± 0.079 kcal/mol
SAGGSAGGSAGGSMTLKVTLTPPSGEVVEFEITEEELDKLKEELPEDWSISTEPIPELESAGGSAGGSAGGS [r4_63_JUSTAS],2.43 ± 0.07 kcal/mol,2.132 ± 0.016 kcal/mol,2.29 ± 0.051 kcal/mol
SAGGSAGGSAGGSMVTLTVEKTFTSLLKTPESELIPVTSTVTEEVTIPESEATEELIKELSAGGSAGGSAGG [r7_777_JUSTAS],0.388 ± 0.054 kcal/mol,-0.0189 ± 0.23 kcal/mol,0.399 ± 0.2 kcal/mol
SAGGSAGGSAGGSMVVEYDPETGVRTTTVALPSDSVEVTTEKIDPATGEVVETVTELAASAGGSAGGSAGGS [r4_415_JUSTAS],-0.105 ± 0.027 kcal/mol,0.634 ± 0.048 kcal/mol,0.358 ± 0.086 kcal/mol
SAGGSAGGSAGGSMYIKIPGEPGDLREVVIEGKKVKVTPDANNPDKVTYTLPDGTKIALSAGGSAGGSAGGS [r4_488_JUSTAS],0.117 ± 0.064 kcal/mol,0.957 ± 0.14 kcal/mol,0.638 ± 0.073 kcal/mol
SAGGSAGGSAGGSMYTLLSTENRPDPNSSKPVTTKTYKLPDGSTVVVTEYPDSVEEKPLVSAGGSAGGSAGG [r7_479_JUSTAS],-0.00111 ± 0.087 kcal/mol,-0.122 ± 0.63 kcal/mol,0.182 ± 0.25 kcal/mol
SAGGSAGGSAGGSNPVDIVEILSYDPEKNTYTFLVKLPDGSTKTITVPGLSVEEIKKELSAGGSAGGSAGGS [r4_357_JUSTAS],1.57 ± 0.083 kcal/mol,3.276 ± 0.029 kcal/mol,2.86 ± 0.085 kcal/mol
SAGGSAGGSAGGSPLPGQPPEVILIKLDKPVKVGQTITLPDGYKLEVNEETGYLLIVKTSAGGSAGGSAGGS [r4_78_TrROS_Hall],0.705 ± 0.05 kcal/mol,0.992 ± 0.081 kcal/mol,0.843 ± 0.051 kcal/mol
SAGGSAGGSAGGSPLVIKVDGPAEKLIEEIKKLFPNAKVLSIETHPDGGVTLVVEKIDESAGGSAGGSAGGS [r4_95_TrMRF],1.38 ± 0.07 kcal/mol,2.35 ± 0.069 kcal/mol,2.03 ± 0.15 kcal/mol
SAGGSAGGSAGGSPNPLLPPVRPKVILKDPKTGTTKTFTTEEEAKKAVESGEYTVLKIESAGGSAGGSAGGS [r10_520_JUSTAS],-0.0844 ± 0.066 kcal/mol,0.353 ± 0.11 kcal/mol,0.217 ± 0.058 kcal/mol
SAGGSAGGSAGGSPPNMEPVETQEYQIGNDFIIKVDTYRMPDPDMYFVDIEITPDALKASAGGSAGGSAGGS [r4_163_TrROS],0.82 ± 0.12 kcal/mol,1.82 ± 0.17 kcal/mol,1.28 ± 0.3 kcal/mol
SAGGSAGGSAGGSSDIVVTSETLPGPTRLVRITIPEKGETIELTLPASESIEQAVALLLSAGGSAGGSAGGS [r4_393_JUSTAS],0.253 ± 0.1 kcal/mol,0.0828 ± 0.4 kcal/mol,0.381 ± 0.16 kcal/mol
SAGGSAGGSAGGSSIRIWIFFPGYFFRITIKPDPGNPNMIKIDITEIIPPDQMDDEDLISAGGSAGGSAGGS [r4_316_TrROS],3.53 ± 0.26 kcal/mol,4.38 ± 0.14 kcal/mol,4.38 ± 0.3 kcal/mol
SAGGSAGGSAGGSSMSISVLEVRELPNGTLEITTVDYNPDNGYTTTTTYTLPPGQPLLISAGGSAGGSAGGS [r4_133_JUSTAS],1.8 ± 0.053 kcal/mol,1.62 ± 0.045 kcal/mol,1.74 ± 0.068 kcal/mol
SAGGSAGGSAGGSSSIYYDPRYPNVAVNPETGEAVTGIPLEELEKLGATPVGPDWVRIDSAGGSAGGSAGGS [r4_306_TrMRF],-0.659 ± 0.15 kcal/mol,0.196 ± 0.061 kcal/mol,-0.0656 ± 0.13 kcal/mol
SAGGSAGGSAGGSSSSASVEVKTETSVSYDPSTGRTYTTTTSKYPLTNTTVTTTTTDPTSAGGSAGGSAGGS [r10_187_JUSTAS],0.955 ± 0.03 kcal/mol,0.139 ± 0.15 kcal/mol,0.621 ± 0.17 kcal/mol
SAGGSAGGSAGGSSTAVIRRPETGEEHTFDLPEDATEEDIRARLEAAGFPPGSEIVEIVESAGGSAGGSAGG [r7_70_JUSTAS],1.21 ± 0.067 kcal/mol,1.91 ± 0.048 kcal/mol,1.66 ± 0.035 kcal/mol
SAGGSAGGSAGGSSVKLTLPDGSQVTVDIHPDGTATVTTFPGDTPSVTNMPVSAFQAALPSAGGSAGGSAGG [r7_178_JUSTAS],1.72 ± 0.44 kcal/mol,1.79 ± 0.21 kcal/mol,2.08 ± 0.53 kcal/mol
